The target of one assay is HER2m2-Fc (UniProt P04626 23-652). Nature of the assay: ELISA.
The target in the next assay is HER2m1-Fc (UniProt P04626 23-652). In words: ELISA. A general note: In an ELISA, binding on a coated surface is turned into a signal by an enzyme label.

B1: Pmab-CLC2 (antibody, V domains shown)
VH: EVQLVESGGGLVQPGGSLRLSCAASGFTFTDYTMDWVRQAPGKGLEWVADVNPNSGGSIYNQRFKGRFTLSVDRSKNTLYLQMNSLRAEDTAVYYCARNLGPSFYFDYWGQGTLVTVSS
VL: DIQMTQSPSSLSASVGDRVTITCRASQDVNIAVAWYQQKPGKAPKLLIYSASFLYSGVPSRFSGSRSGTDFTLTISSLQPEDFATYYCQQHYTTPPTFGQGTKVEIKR
In general, EC50 refers to the concentration giving half of the maximal effect. A low value points to higher potency in that assay. The molecule B1 had an EC50 with HER2m2-Fc of 0.598 µg/mL.

B2: Pmab-CLC6 (antibody, V domains shown)
VH: EVQLVESGGGLVQPGGSLRLSCAASGFTFTDYTMDWVRQAPGKGLEWVADVNPNSGGSIYNQRFKGRFTLSVDRSKNTLYLQMNSLRAEDTAVYYCARNLGPSFYFDYWGQGTLVTVSS
VL: DIQMTQSPSSLSASVGDRVTITCKASQDVSIGVAWYQQKPGKAPKLLIYSASYRYTGVPSRFSGSGSGTDFTLTISSLQPEDFATYYCQQYYITPYTFGQGTKVEIKR
Take B2: the half-maximal effective concentration (EC50) in the assay with HER2m2-Fc turned out to be 0.393 µg/mL.

B3: Pmab-CLC3 (antibody, V domains shown)
VH: EVQLVESGGGLVQPGGSLRLSCAASGFTFTDYTMDWVRQAPGKGLEWVADVNPNSGGSIYNQRFKGRFTLSVDRSKNTLYLQMNSLRAEDTAVYYCARNLGPSFYFDYWGQGTLVTVSS
VL: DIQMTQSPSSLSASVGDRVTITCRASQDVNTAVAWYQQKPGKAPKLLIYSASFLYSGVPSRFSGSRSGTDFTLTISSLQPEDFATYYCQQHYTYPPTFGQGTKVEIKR
On to B3, for which, in the assay with HER2m2-Fc, the EC50 stood at 0.49 µg/mL. This EC50 and that of the molecule before are within 1.5-fold of each other.

B4: Pmab-CLC4 (antibody, V domains shown)
VH: EVQLVESGGGLVQPGGSLRLSCAASGFTFTDYTMDWVRQAPGKGLEWVADVNPNSGGSIYNQRFKGRFTLSVDRSKNTLYLQMNSLRAEDTAVYYCARNLGPSFYFDYWGQGTLVTVSS
VL: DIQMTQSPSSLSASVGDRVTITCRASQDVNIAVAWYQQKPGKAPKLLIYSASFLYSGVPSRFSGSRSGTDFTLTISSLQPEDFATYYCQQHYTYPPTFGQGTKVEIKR
With B4, the EC50 with HER2m2-Fc amounted to 0.479 µg/mL.

B5: Tmab-CLC5 (antibody, V domains shown)
VH: not shown
VL: DIQMTQSPSSLSASVGDRVTITCKASQDVSIGVAWYQQKPGKAPKLLIYSASYRYTGVPSRFSGSGSGTDFTLTISSLQPEDFATYYCQQYYIYPYTFGQGTKVEIKR
B5 registered an EC50 with HER2m1-Fc of 0.616 µg/mL.

B6: Tmab-CLC6 (antibody, V domains shown)
VH: not shown
VL: DIQMTQSPSSLSASVGDRVTITCKASQDVSIGVAWYQQKPGKAPKLLIYSASYRYTGVPSRFSGSGSGTDFTLTISSLQPEDFATYYCQQYYITPYTFGQGTKVEIKR
Turning to B6, the EC50 in the assay with HER2m1-Fc is 1.1 µg/mL.

Source of the values: patent US20210070885A1 (published 2021).
